Measurements as given in publication PMC9860126, “Mechanistic insights into the nickel-dependent allosteric response of the Helicobacter pylori NikR transcription factor”.
Positions count from the first letter of the chain named.

B1: ureA promoter 32 bp (FA) (dsDNA)
DNA 1: ATATAACACTAATTCATTTTAAATAATAATTA
DNA 2: TAATTATTATTTAAAATGAATTAGTGTTATAT
B2: ureA-perf promoter 32 bp (dsDNA)
DNA 1: B1 DNA 1 with A6T, C7T, C9T
DNA 2: B1 DNA 2 with G24A, G26A, T27A

How the values were obtained:
Details in all cases: protein: recombinant; tags: none stated; chain copies: 4; label: fluorescein on internal thymine (T14 of strand 1); blunt
[1] = molecular target: HpNikR K140A (Helicobacter pylori G27, UniProt A1YSQ9 1-148, K140A); experiment: fluorescence anisotropy; Ni(II)-bound; FA: 5 nM DNA, 20 mM Tris pH 7.6, 100 mM NaCl, 3 mM MgSO4, temperature not stated (Ni loading 1.2 eq NiSO4 per monomer at RT). EMSA: 20 mM Tris pH 7.5, 100 mM KCl, 3 mM MgCl2, 0.1% IGEPAL, 5% glycerol, 0.1 mg/ml herring sperm DNA, RT; gel with 800 uM NiSO4 at 4 C
[2] = molecular target: HpNikR Δ3aa (Helicobacter pylori G27, UniProt A1YSQ9 1-58+62-148, internal_change); experiment: as above
[3] = molecular target: T1, HpNikR I127A (Helicobacter pylori G27, UniProt A1YSQ9 1-148, I127A); experiment: as above
[4] = molecular target: HpNikR Q81A (Helicobacter pylori G27, UniProt A1YSQ9 1-148, Q81A); experiment: fluorescence anisotropy; apo (no Ni); FA: 5 nM DNA, 20 mM Tris pH 7.6, 100 mM NaCl, 3 mM MgSO4, temperature not stated (Ni loading 1.2 eq NiSO4 per monomer at RT). EMSA: 20 mM Tris pH 7.5, 100 mM KCl, 3 mM MgCl2, 0.1% IGEPAL, 5% glycerol, 0.1 mg/ml herring sperm DNA, RT; gel with 800 uM NiSO4 at 4 C
[5] = molecular target: HpNikR W54A (Helicobacter pylori G27, UniProt A1YSQ9 1-148, W54A); experiment: as above
[6] = molecular target: HpNikR T92A (Helicobacter pylori G27, UniProt A1YSQ9 1-148, T92A); experiment: as above
[7] = molecular target: HpNikR E56A (Helicobacter pylori G27, UniProt A1YSQ9 1-148, E56A); experiment: as above
[8] = molecular target: HpNikR E62A (Helicobacter pylori G27, UniProt A1YSQ9 1-148, E62A); experiment: as above
[9] = molecular target: HpNikR K48A (Helicobacter pylori G27, UniProt A1YSQ9 1-148, K48A); experiment: as above
[10] = molecular target: HpNikR N32A (Helicobacter pylori G27, UniProt A1YSQ9 1-148, N32A); experiment: as above
[11] = molecular target: T1, HpNikR I127A; experiment: as above

Binder	Kd [1] [nM]	Kd [2] [nM]	Kd [3] [nM]	Kd [4] [nM]	Kd [5] [nM]	Kd [6] [nM]	Kd [7] [nM]	Kd [8] [nM]	binding result [9]	Kd [10] [nM]	Kd [11] [nM]
B1	63 ± 5.6	4.4 ± 1.3	8.7 ± 1.3	2000 ± 500	6100 ± 1000	2200 ± 200	1800 ± 300	2600 ± 200	no binding	1600 ± 400	4000 ± 1300
B2	–	–	–	1600 ± 600	3700 ± 200	2500 ± 400	1200 ± 100	4200 ± 700	no binding	1900 ± 700	4000 ± 300
